Test results: paper PMC4148139 (Biochemistry, 2014)

T1: FADD DD (death domain of Fas-associated protein with death domain, residues 93-184), His-tagged (UniProt Q13158 93-184)
T1 sequence (looked up): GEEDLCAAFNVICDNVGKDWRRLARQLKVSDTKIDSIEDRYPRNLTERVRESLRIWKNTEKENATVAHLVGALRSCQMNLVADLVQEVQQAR

B1: RIP1 DD (death domain of receptor interaction protein kinase 1, residues 583-664), His-tagged (domain or fragment, UniProt Q13546 583-664, looked up)
chain: TDKHLDPIRENLGKHWKNCARKLGFTQSQIDEIDHDYERDGLKEKVYQMLQKWVMREGIKGATVGKLAQALHQCSRIDLLSS
B2: GST-tagged RIP1 DD (domain or fragment, UniProt Q13546 583-664, looked up)
chain: B1 chain

Target: T1, FADD DD (death domain of Fas-associated …)
Experiment: SEC-MALS

Row | Binder | stoichiometry N
1 | B1 | ~1 RIP1 DD per FADD DD (5:5)
2 | B2 | 1 GST-RIP1 DD per FADD DD (5:5)
